Test results taken from patent US20190077867A1 (REYOUNG SUZHOU BIOLOGY SCIENCE AND TECHNOLOGY, published 2019).

B1: mouse anti-PD-L1 (antibody, V domains shown)
VH: KVQLQQSGAELVKPGASVKLSCKASGYTFTKYIIHWIKQRSGQGLEWIGWFYPGSGNIRYNEKIKGKATLTADKSSSTVYMELSGLTSEDSAVYFCARHGELGGGYFFDYWGQGTTLTVSS
VL: QIVLSQSPTILSASPGEKVTMTCRASSSVSNIHWYQQKTGSSPKPWIYATSNLASGAPVRFSGSGSGTSYSLTISRVEAEDAATYYCQQWSSNPLTFGPGTKLELKR
notes: also called mouse PD-L1 antibody; mouse anti-PD-L1 monoclonal antibody
B2: humanized antibody anti-PD-L1-1 (antibody, V domains shown)
VH: EVQLVQSGAEVKKPGASVKVSCKASGYTFTKYIIHWVRQAPGQGLEWMGWFYPGSGNIRYNEKIKGRVTMTRDTSTSTVYMELSSLRSEDTAVYYCARHGELGGGYFFDYWGQGTTVTVSS
VL: DIQLTQSPSFLSASVGDRVTITCRASSSVSNIHWYQQKPGKAPKPWIYATSNLASGVPSRFSGSGSGTEFTLTISSLQPEDFATYYCQQWSSNPLTFGQGTKLEIKR
notes: Expressed in CHO-KSM4 cells; also called humanized PD-L1 antibody

What was measured:
hPD-L1-Fc [1] = target: T1, hPD-L1-Fc (human, UniProt Q9NZQ7 19-238, limits assumed); assay: ELISA on coated hPD-L1-Fc, goat anti-mouse-HRP
T1 construct: Plate-coated antigen in the Embodiment 1 ELISAs
T1 sequence (Q9NZQ7 19-238 limits assumed): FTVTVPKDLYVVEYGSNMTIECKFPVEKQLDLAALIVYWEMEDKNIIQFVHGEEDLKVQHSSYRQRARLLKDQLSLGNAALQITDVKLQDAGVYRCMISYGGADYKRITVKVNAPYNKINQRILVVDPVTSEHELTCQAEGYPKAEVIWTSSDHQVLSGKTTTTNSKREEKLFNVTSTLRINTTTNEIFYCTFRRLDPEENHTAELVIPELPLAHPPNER
Method: A. ELISA Binding Activity [0084] Envelop hPD-L1-Fc on the plate, add gradient diluted antibody, incubate and wash it, and then add goat anti-mouse-HRP, perform coloration, and draw up the reaction curve by fitting of readings (the results as shown in FIG. 1) to calculate the EC50 value.

[2] = target: T2, hPD-L1 on hPD-L1-Fc over-expressed cells (human, UniProt Q9NZQ7 19-290); assay: cell binding on hPD-L1-Fc over-expressed cells, anti-mouse-EU fluorescence
T2 construct: whole, on cells; also called over-expressed hPD-L1-Fc cells
T2 sequence (Q9NZQ7 19-290): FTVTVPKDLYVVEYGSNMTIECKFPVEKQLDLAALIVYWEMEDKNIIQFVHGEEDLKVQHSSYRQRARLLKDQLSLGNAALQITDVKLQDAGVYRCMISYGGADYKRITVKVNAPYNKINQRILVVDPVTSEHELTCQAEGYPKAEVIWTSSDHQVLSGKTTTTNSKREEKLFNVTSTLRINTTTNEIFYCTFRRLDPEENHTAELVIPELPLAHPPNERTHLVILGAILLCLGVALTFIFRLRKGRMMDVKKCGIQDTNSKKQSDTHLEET
From the text: C. Cell Binding Activity [0088] Lay hPD-L1-Fc over-expressed cells on the cell plate for culture inspection one day ahead of schedule. After closure on the next day, add gradient-diluted antibody, then anti-mouse-EU. And then obtain the readings.

hPD-L1-Fc [3] = target: T1, hPD-L1-Fc; assay: competition ELISA: antibody pre-incubated with hPD-L1-Fc-Biotin, added to a plate printed as coated with hPD-L1-Fc, SA-HRP
Method: B. ELISA Inhibitory Activity [0086] Incubate the gradient diluted antibody and a certain concentration of hPD-L1-Fc-Biotin, then add the mixture to the plate enveloped with hPD-L1-Fc. Add SA-HRP to the plate after incubating and washing. Then perform coloration. Draw up the reaction curve by fitting of readings (see FIG. 2 for results) to calculate the IC50 value.

[4] = target: T2, hPD-L1 on hPD-L1-Fc over-expressed cells; assay: cell inhibition assay: cells printed as PD1-27 (PD1 over-expressed CHO-K1), antibody, PD1-Fc-Biotin as competitor, Europium-labeled streptavidin
From the text: D. Cell Inhibitory Activity [0090] Lay PD1-27 (PD1 over-expressed CHO-K1 stable transfected cells) on the cell plate for culture inspection one day ahead of schedule. After closure on the next day, add gradient-diluted antibody, then PD1-Fc-Biotin, then Europium-labeled streptavidin, and obtain the readings.

B7-1 = target: T3, B7-1 (Homo sapiens (Human), UniProt P33681 35-242); assay: ELISA on coated protein, goat anti-human FAB-HRP, OD450
T3 construct: probably human
T3 sequence: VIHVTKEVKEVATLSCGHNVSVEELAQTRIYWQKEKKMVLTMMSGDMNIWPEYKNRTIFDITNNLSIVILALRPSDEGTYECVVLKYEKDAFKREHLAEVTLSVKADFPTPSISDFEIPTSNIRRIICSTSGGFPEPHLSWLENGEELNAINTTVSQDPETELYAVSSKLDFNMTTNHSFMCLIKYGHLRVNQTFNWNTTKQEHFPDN
Method: The binding of B7 family members B7-1, B7-2 to PD-L2 protein, and the binding of mouse, M. fascicularis and human PD-L1 protein to humanized antibody anti-PD-L1-1 are tested. Different proteins are stored at […] in enveloping buffer at 4° C. overnight. Remove the solution in wells the next day and wash with PBST for twice. Then add 1% BSA, seal at 37° C. for 1 hour, then wash with PBST for twice. Add 0.5 μg/mL antibody samples, incubate for 1 hour, and wash with PBST for three times. Dilute with goat anti-human FAB-HRP at ratio of 1:10000, incubate for 1 hour at 37 C, and wash with PBST for three times. Add TMB for 15 min coloration, stop the reaction with 0.5M H₂SO₄ and read out the absorbance at 450 nm.

[5] = target: T4, recombinant human PD-L1 expressed on the surface of CHO cells (human, UniProt Q9NZQ7 19-290); assay: cell ELISA on CHO cells expressing human PD-L1, anti-human-Eu fluorescence
T4 construct: whole, on cells; also called CHO cells transfected by PD-L1; CHO cells with PD-L1 expressed on the surface
T4 sequence (Q9NZQ7 19-290): as the sequence (Q9NZQ7 19-290) above
Method: A Chinese hamster ovary (CHO) cell line expressing recombinant human PD-L1 on cell surface is constructed and its binding specificity to humanized antibody anti-PD-L1-1 is determined by ELISA assay. The cells are overlaid on PD-L1 the day before the test, and 1/200 cells are filled with T75 bottles on each well. Then add 1% BSA and seal at 37° C. for 1 hour. The antibody is diluted three folds starting from 5 μg/mL for 8 concentration gradients, incubated at 25° C. for 1 hour, and washed with PBST for one time. The volume of 50 ng/mL anti-human-Eu added to each well is 100 μL, with reaction time of 0.5 hours at 25° C., and washing with PBS for one time. Add fluorescence enhancement liquid and read values at exciting light 337 nm/emitted light 620 nm.

[6] = target: T5, recombinant human PD-L1 fusion protein (human, UniProt Q9NZQ7 19-238); assay: ELISA on coated recombinant human PD-L1 fusion protein, goat anti-human FAB-HRP
T5 construct: This may be the same reagent as hPD-L1-Fc
T5 sequence (Q9NZQ7 19-238): as the sequence (Q9NZQ7 19-238 limits assumed) above
Method: The recombinant human PD-L1 fusion protein of 0.5 μg/mL is stored at 4° C. overnight in enveloping buffer. Remove the solution in wells the next day and wash with PBST for twice. Then add 1% BSA and seal at 37° C. for 1 hour. Wash with PBST for twice. The antibody is diluted three folds starting from 5 μg/mL for 8 concentration gradients, incubated at 25° C. for 1 hour, and washed with PBST for three time. Dilute with goat anti-human FAB-HRP at ratio of 1:10000, incubate for 1 hour at 37 C, and wash with PBST for three times. Add TMB for 15 min coloration, stop the reaction with 0.5M H₂SO₄ and read out the absorbance at 450 nm.

[7] = target: T5, recombinant human PD-L1 fusion protein; assay: competition ELISA on coated recombinant human PD-L1 fusion protein, PD1-Fc-Biotin as competitor, streptavidin-HRP
Method: The recombinant human PD-L1 fusion protein of 0.5 μg/mL is stored at 4° C. overnight in enveloping buffer. Remove the solution in wells the next day and wash with PBST for twice. Then add 1% BSA, seal at 37° C. for 1 hour, then wash with PBST for twice. The antibody is diluted 2.5 folds starting from 10 μg/mL for 8 concentration gradients, mixed with same volume of 1 μg/mL PD1-Fc-Biotin, incubated at 25° C. for 1 hour, and washed with PBST for one time. Incubate with goat streptavidin-HRP at ratio of 1:10000 for 1 hour at 37 C, and wash with PBST for three times. Add TMB for 15 min coloration, stop the reaction with 0.5M H₂SO₄ and read out the absorbance at 450 nm.

[8] = target: T5, recombinant human PD-L1 fusion protein; assay: ELISA, recombinant human PD-L1 fusion protein coated, antibody after 1 day in monkey serum at 37 °C, goat anti-human FAB-HRP, OD450
Method: (§1) The recombinant human PD-L1 fusion protein is stored at the concentration of 0.5 μg/mL at 4° C. overnight in enveloping buffer. Remove the solution in wells the next day and wash with PBST for twice. Then add 1% BSA, seal at 37° C. for 1 hour, then wash with PBST for twice. The stable antibody samples are diluted three folds starting from 1 μg/mL for 8 concentration gradients, incubated at 37° C. for 1 hour, and washed with PBST for three times. Dilute with goat anti-human FAB-HRP at ratio of 1:10000, incubate for 1 hour at 37 C, and wash with PBST for three times. Add TMB for 15 min coloration, stop the reaction with 0.5M H₂SO₄ and read out the absorbance at 450 nm.

[9] = target: T5, recombinant human PD-L1 fusion protein; assay: ELISA, recombinant human PD-L1 fusion protein coated, antibody after 0 days in monkey serum at 37 °C, goat anti-human FAB-HRP, OD450
Method: as §1

[10] = target: T5, recombinant human PD-L1 fusion protein; assay: ELISA, recombinant human PD-L1 fusion protein coated, antibody after 4 days in monkey serum at 37 °C, goat anti-human FAB-HRP, OD450
Method: as §1

[11] = target: T5, recombinant human PD-L1 fusion protein; assay: ELISA, recombinant human PD-L1 fusion protein coated, antibody after 7 days in monkey serum at 37 °C, goat anti-human FAB-HRP, OD450
Method: as §1

Binder	EC50 (hPD-L1-Fc [1])	EC50 [2]	IC50 (hPD-L1-Fc [3])	IC50 [4]	binding result (B7-1)	EC50 [5]	EC50 [6]	IC50 [7]	EC50 (read off the curve) [8]	EC50 (read off the curve) [9]	EC50 (read off the curve) [10]	EC50 (read off the curve) [11]
B1	0.00167 µg/mL	0.0303 µg/mL	0.86 nM	0.638 µg/mL								
B2					no binding (tested: 0.5 µg/mL antibody)	0.0935 µg/mL	0.0195 µg/mL	0.0432 µg/mL	~0.04 µg/mL	~0.04 µg/mL	~0.04 µg/mL	~0.04 µg/mL
